From US20170145086A1 (VISTERRA, published 2017) come the findings set out here.

In test [1] the target is T1, human APRIL variant V181E (Homo sapiens, UniProt O75888).
T1 construct: one of the variants grouped under m24
T1 sequence (APRIL monomer, looked up): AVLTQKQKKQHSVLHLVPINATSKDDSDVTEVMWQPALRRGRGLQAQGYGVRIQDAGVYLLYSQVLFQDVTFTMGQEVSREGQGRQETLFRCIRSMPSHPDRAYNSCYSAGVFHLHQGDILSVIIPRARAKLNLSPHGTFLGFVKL
The experiment in a line: ELISA on the human APRIL variant V181E [panel V181E]. As for the experimental part: (§1) Antibody binding to human and mouse variants was assessed by ELISA. […] FLAG-tagged APRIL was captured from cell culture media using anti-FLAG antibody. The results are shown in FIGS. 23A-23B, 24A-24B, and 25A-25B. Differentiated epitope mapping of exemplary anti-APRIL antibodies was performed by site directed mutagenesis. Primary characterization of human APRIL binding site was carried out by site-directed mutagenesis of select amino acid positions within APRIL followed by evaluation of antibody binding to these variants by ELISA.

The target of test [2] is T2, human Tweak (TNFSF12; Abcam) (human, UniProt O43508 94-249, limits assumed).
T2 sequence (looked up): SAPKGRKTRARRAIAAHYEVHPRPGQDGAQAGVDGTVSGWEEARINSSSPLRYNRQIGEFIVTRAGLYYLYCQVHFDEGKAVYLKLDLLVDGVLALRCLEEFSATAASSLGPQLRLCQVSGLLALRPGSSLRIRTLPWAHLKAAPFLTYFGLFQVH
The experiment in a line: indirect ELISA, cytokine coated. As for the experimental part:
(§2) Selected anti-APRIL antibodies were evaluated for potential cross-reactivity with other members of the TNFa superfamily (TNFSF) family of cytokines, including: human TNFα (TNFSF2; Adipogen), human […] (TNFSF4, Adipogen), human FasL (TNFSF6, Adipogen), human TRAIL (TNFSF10, Adipogen), human RANKL (TNFSF11; Adipogen), human Tweak (TNFSF12; Abcam), human and mouse BAFF (TNFSF13B, AB Biosciences and Adipogen, respectively), and human LIGHT (TNFSF14, Adipogen). These cytokines share variable degree of sequence as well as higher order structural homologies. Among them, BAFF appears to be the most closely related to APRIL, with 29% identity and 53% amino acid sequence similarity.
(§3) Binding was evaluated by an indirect ELISA protocol using similar methods described for evaluation of APRIL binding; cytokines were immobilized to ELISA plate at 50 ng per well and then exposed to a solution of each of the test antibodies at a fixed concentration of 10 μg/ml Anti-human or anti-mouse Ig-HRP polyclonal antibody conjugates (Jackson Laboratories) were used for detection of antibody binding. The results presented in FIG. 36 indicated eleven of the twelve antibodies tested in this assay to specifically bind APRIL with no measurable cross-reactivity with the other TNFSF members substantially above assay background.

Test [3] concerns the target mouse BAFF (TNFSF13B, Adipogen) (mouse, UniProt Q9WU72 127-309, limits assumed). The experiment in a line: indirect ELISA, cytokine coated. As for the experimental part:
as §2, §3

Test [4] concerns the target human BAFF (TNFSF13B, AB Biosciences) (human, UniProt Q9Y275 134-285, limits assumed). Nature of the test: indirect ELISA, cytokine coated. As for the experimental part: as §2, §3
For test [5], the target named is T3, human RANKL (TNFSF11; Adipogen) (human, UniProt O14788 152-317, limits assumed).
T3 sequence (looked up): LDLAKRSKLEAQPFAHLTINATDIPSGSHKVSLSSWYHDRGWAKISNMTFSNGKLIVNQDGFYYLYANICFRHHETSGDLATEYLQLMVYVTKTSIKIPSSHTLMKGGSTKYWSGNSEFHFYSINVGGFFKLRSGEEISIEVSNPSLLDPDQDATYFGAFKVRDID
Nature of the test: indirect ELISA, cytokine coated. As for the experimental part:
as §2, §3

Test [6] concerns the target T4, human FasL (TNFSF6, Adipogen) (human, UniProt P48023 103-281, limits assumed).
T4 sequence (looked up): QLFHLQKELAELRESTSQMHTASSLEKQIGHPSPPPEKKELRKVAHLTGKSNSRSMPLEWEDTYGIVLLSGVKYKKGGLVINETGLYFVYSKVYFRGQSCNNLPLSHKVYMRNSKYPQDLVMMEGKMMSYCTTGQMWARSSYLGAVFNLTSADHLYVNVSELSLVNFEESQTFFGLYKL
The experiment in a line: indirect ELISA, cytokine coated. Here is the method: as §2, §3

In test [7] the target is human LIGHT (TNFSF14, Adipogen) (human, UniProt O43557 89-240, limits assumed). Nature of the test: indirect ELISA, cytokine coated. Here is the method: as §2, §3
Sequence of human LIGHT (TNFSF14, Adipogen) (O43557 89-240 limits assumed): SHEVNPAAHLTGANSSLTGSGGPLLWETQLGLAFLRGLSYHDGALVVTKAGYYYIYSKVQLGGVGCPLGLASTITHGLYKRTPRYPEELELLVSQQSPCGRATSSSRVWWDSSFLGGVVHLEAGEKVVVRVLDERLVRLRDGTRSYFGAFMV
The target in test [8] is human TRAIL (TNFSF10, Adipogen) (human, UniProt P50591 95-281, limits assumed). Nature of the test: indirect ELISA, cytokine coated. As for the experimental part:
as §2, §3

For test [9], the target named is human TNFα (TNFSF2; Adipogen) (human, UniProt P01375 85-233, limits assumed). The experiment in a line: indirect ELISA, cytokine coated. As for the experimental part: as §2, §3
Sequence of human TNFα (TNFSF2; Adipogen) (P01375 85-233 limits assumed): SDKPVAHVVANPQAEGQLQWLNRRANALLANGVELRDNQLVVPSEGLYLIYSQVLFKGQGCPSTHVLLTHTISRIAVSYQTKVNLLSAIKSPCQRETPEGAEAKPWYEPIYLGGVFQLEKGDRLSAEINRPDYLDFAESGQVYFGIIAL
Test [10] has as its target T5, HA-GCN4 mAPRIL (amino acid residues 96-241) (mouse, UniProt Q9D777 96-241, Assembles as a homotrimer through the GCN4 zipper; one protomer is given.).
T5 construct: Bought (R&D Systems); also called HA-tagged mouse APRIL (R&D Systems); recombinant mouse APRIL; not shown: N-terminal HA tag and GCN4 isoleucine-zipper trimerisation domain, with any linker, of the bought R&D Systems protein
T5 sequence: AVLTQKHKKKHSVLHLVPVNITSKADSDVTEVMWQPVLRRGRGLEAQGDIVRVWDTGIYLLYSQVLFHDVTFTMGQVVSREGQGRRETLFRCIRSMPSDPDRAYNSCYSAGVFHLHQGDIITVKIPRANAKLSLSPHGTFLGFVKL
The experiment in a line: indirect ELISA on mouse APRIL; row printed 4504-063, legend paragraph 738 says 4540-063.

In test [11] the target is T6, HA-GCN4 hAPRIL (amino acid residues 105-250) (human, UniProt O75888 105-250).
T6 construct: Bought (R&D Systems); also called HA-tagged GCN4 human APRIL; HA-GCN4-huAPRIL; not shown: N-terminal HA tag; GCN4 isoleucine zipper oligomerization domain
T6 sequence: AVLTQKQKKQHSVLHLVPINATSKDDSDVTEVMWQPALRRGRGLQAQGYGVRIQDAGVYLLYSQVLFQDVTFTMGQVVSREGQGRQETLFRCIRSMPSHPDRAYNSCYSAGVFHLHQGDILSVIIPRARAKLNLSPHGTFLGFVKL
The experiment in a line: blocking ELISA; blocked: human APRIL binding to BCMA-Fc. Here is the method: Recombinant TACI-Fc or BCMA-Fc was coated on 96 well plates in 0.1 M carbonate-bicarbonate buffer (pH 9.6), overnight at 4° C. Plates were washed three times with 1×PBST (PBS+0.025% Tween 20) followed by blocking with 1% BSA in 1×PBS, 37° C. for 1 hour. All subsequent wash steps were carried out with 1×PBST. To assess antibody blocking, either 15 ng/mL or 50 ng/mL HA-GCN4-huAPRIL was preincubated with varying antibody concentrations ranging from 0.03-30 μg/mL in binding buffer comprised of 1% BSA and 0.025% Tween-20 in 1×PBS. Preincubation was carried out at 30° C. for 1 hour with mixing. Antibody-APRIL premix with 50 ng/mL APRIL or 15 ng/mL APRIL was then added to TACI-Fc coated or BCMA-Fc coated plates, respectively, and incubated for an additional hour at 30° C. HA-tagged APRIL binding to either receptor was quantified using a goat polyclonal anti-HA tag-HRP antibody (Abcam) added at a 1:10000 dilution followed by colorimetric development using 100 μl/well of freshly prepared TMB substrate (KPL) carried out for up to 30 minutes at room temperature before quenching enzymatic reaction by the addition of 1N sulfuric acid. ELISA signal was quantified by absorbance at 450 nm. ELISA data was analyzed by non-linear regression. IC₅₀ values were calculated based on a 4 parameter fit of antibody titration curves. […] Non-blocking antibodies Aprly-1 or Aprly-5 (Enzo Biosciences) were used as negative controls. Mouse specific, blocking antibody aprily-1-1 (Adipogen) was generally used as a positive control in experiments using mouse APRIL (HA-GCN4-mAPRIL).
Assay is based on receptor blocking ELISA using recombinant human APRIL (R&D Systems) and either human TACI-Fc (FIG. 30A) or BCMA-Fc (FIG. 30B).

Test [12] concerns the target T6, HA-GCN4 hAPRIL (amino acid residues …). The experiment in a line: cell-based or functional assay.
For test [13] the target is unchanged. Nature of the test: indirect ELISA on human APRIL; row printed 4504-063, legend paragraph 738 says 4540-063.
The target is the same in test [14]. Nature of the test: blocking ELISA; blocked: human APRIL binding to TACI-Fc.
The next test addresses T7, pur. muAPRIL (Mus musculus, UniProt Q9D777).
T7 sequence (APRIL monomer, looked up): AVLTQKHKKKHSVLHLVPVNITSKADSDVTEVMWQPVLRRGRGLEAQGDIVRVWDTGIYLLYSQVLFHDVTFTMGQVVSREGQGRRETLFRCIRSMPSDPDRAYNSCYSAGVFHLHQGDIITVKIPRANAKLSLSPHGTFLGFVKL
The experiment in a line: ELISA, purified APRIL control. Here is the method:
as §1

Test [15] deals with T8, FLAG-tagged mouse APRIL (WT muAPRIL and muAPRIL Mutants) (Mus musculus, UniProt Q9D777).
T8 sequence (APRIL monomer, looked up): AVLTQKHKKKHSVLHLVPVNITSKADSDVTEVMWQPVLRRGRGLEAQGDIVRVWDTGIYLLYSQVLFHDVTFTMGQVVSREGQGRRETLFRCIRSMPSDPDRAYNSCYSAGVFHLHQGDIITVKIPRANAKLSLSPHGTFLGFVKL
The experiment in a line: ELISA, FLAG-APRIL captured with anti-FLAG antibody. As for the experimental part: as §1

Sequence of human TRAIL (TNFSF10, Adipogen) (P50591 95-281 limits assumed): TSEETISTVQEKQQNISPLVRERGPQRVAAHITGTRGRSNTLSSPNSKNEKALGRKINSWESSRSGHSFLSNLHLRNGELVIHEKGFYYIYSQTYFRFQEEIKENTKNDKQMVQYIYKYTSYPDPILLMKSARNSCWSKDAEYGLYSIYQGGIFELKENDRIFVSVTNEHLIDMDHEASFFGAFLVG
Sequence of mouse BAFF (TNFSF13B, Adipogen) (Q9WU72 127-309 limits assumed): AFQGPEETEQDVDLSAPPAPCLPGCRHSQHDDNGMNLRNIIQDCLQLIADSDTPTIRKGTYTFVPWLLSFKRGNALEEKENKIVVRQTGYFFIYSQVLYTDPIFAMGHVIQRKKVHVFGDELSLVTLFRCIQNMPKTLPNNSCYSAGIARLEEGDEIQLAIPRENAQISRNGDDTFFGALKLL
Sequence of human BAFF (TNFSF13B, AB Biosciences) (Q9Y275 134-285 limits assumed): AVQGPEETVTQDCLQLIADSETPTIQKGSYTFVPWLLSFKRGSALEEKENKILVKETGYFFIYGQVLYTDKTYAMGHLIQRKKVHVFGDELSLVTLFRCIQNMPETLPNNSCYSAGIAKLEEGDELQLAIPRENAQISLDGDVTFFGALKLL

B1: monoclonal antibody 2419 (antibody, V domains shown)
VH: QVQLQQSGAELVKPGASVRLSCEASGYTFTDYTIHWVKQRSGQGLEWIGWIYPLRGSINYNEKFKDKATLTADKSSSTVYLELGRLTSKDSAVYFCARHGAYYSNAFDYWGQGTTLTVSS
VL: NIVMTQSPASLAVSLGQRATISCRASESVDNDGIRFMHWYQQKPGQPPKLLIYRASNLESGIPARFSGSGSRTDFTLTINPVETDDVATYYCQQSNKDPYTFGGGTKLELK
For B1, the binding result is listed as “binds” in test [1]; “no binding (tested: 10 µg/ml (p-1128))” in test [2]; “no binding (tested: 10 µg/ml (p-1128))” in test [3]; “no binding (tested: 10 µg/ml (p-1128))” in [4]; “no binding (tested: 10 µg/ml (p-1128))” in test [5]; “no binding (tested: 10 µg/ml (p-1128))” in [6]. Moreover, the binding result in test [7], in test [8] and in test [9] was “no binding (tested: 10 µg/ml (p-1128))” throughout.

B2: monoclonal antibody 4540-063 (antibody, IgG1, V domains shown)
VH: QVQLVQSGAELKKPGASVKVSCKASGYTFADYYMNWVRQAPGQGLEWMGWIFPGSGSTYYNQKFQGRVTMTVDKSSSTAYMELSRLRSDDTAVYYCARGDSGRAMDYWGQGTLVTVSS
VL: DIQMTQSPSSLSASVGDRVTITCQASQDINKYLAWYQHKPGKAPKLLIHYTSTLETGVPSRFSGSGSGTDFTFTISSLQPEDIATYYCLQYDNLLTFGGGTKVEIK
In test [10], B2 returned a 50% effective concentration (EC50) of 0.00156 nM. In test [11], the IC50 is 1.92 nM and the “Relative Activity (normalised to 2419)” value was found to be 8.11. For the same molecule, in test [12], the “IC50 (inhibition of APRIL-mediated BCMA NFκB signaling)” value is roughly 1.04 nM and the “IC50 (inhibition of APRIL-mediated TACI NFκB signaling)” value was roughly 7.19 nM. This molecule also displayed a 50% effective concentration (EC50) in test [13] of 0.00206 nM. For the same molecule, in test [14], the IC50 was found to be 0.67 nM and the “Relative Activity (normalised to 2419)” value came out at 2.43.

B3: monoclonal antibody 4035 (antibody, V domains shown)
VH: QVQLKESGPGLVAPSQSLSITCTVSGFSLTIYDVHWVRQSPGKGLEWLGVIWSDGSTDYNAAFISRLSISKDNSKSQVFFKMNSLQADDTAIYYCARNWVDQAWFAYWGQGTLVTVSA
VL: DIQMTQSPASLSASVGETITITCRASKNIYSYLAWYQQKQGKSPQLLVYNAKTLPEGVPSRFSGSGSGTQFSLKINSLQPEDFGSYYCQHHYGTPLTFGAGTKLELK
notes: mouse-derived
For B3, the binding result is listed as “no binding” with pur. muAPRIL; “no binding” in [15]; “no binding (tested: 10 µg/ml (p-1128))” in [2]; “no binding (tested: 10 µg/ml (p-1128))” in test [3]; “no binding (tested: 10 µg/ml (p-1128))” in test [4]; “no binding (tested: 10 µg/ml (p-1128))” in test [5]. The binding result in test [6], in test [7], in test [8] and in test [9] was “no binding (tested: 10 µg/ml (p-1128))” throughout.
